Data taken from patent US20240382513A1.

Molecular target: transferrin receptor (on Hepa 1-6 cells; in tissues of C57BL/6 wild-type mice) (mouse) (UniProt Q62351)
Assay: cell-based or functional assay

UniProt Q62351, sequence (Q62351 whole entry): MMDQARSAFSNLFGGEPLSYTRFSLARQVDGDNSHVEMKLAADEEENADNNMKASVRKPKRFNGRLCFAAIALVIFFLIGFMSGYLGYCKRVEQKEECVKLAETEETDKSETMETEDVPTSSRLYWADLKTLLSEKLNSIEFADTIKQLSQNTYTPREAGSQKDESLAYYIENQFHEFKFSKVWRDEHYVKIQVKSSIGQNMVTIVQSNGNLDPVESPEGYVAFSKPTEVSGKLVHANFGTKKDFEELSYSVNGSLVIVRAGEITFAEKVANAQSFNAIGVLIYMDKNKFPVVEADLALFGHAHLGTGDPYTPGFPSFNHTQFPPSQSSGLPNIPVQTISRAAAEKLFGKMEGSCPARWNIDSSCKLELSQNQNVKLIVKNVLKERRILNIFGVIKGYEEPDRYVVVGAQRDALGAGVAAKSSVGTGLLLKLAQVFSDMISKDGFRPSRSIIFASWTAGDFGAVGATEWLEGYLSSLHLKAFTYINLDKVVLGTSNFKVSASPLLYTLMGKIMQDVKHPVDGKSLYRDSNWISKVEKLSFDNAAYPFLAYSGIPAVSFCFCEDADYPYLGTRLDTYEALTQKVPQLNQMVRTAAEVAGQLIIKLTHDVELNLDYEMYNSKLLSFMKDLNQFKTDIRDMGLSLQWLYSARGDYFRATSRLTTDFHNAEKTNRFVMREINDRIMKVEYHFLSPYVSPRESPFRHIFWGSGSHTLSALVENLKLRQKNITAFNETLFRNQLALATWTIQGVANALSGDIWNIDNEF

HPRT expression in gastrocnemius of C57BL/6 mice, three days after a single i.v. dose (2 mg/kg of RNA): 31%
HPRT expression in heart of C57BL/6 mice, three days after a single i.v. dose (2 mg/kg of RNA): 30%
decrease in HPRT expression in Hepa 1-6 cells after 72 hour incubation with 100 nM complex: 50%
Substance: antiTfR-siHPRT complex: RI7 217 anti-TfR1 Fab (DTX-A-002) covalently linked via a non-cleavable GMBS linker to the HPRT siRNA (siHPRT)
